Results published in article PMC6953117.

Molecular target: giantin-WT-GFP (UniProt Q14789)
Assay: atomic force microscopy (particle volumes); giantin-GFP isolated with GFP-Trap Magnetic Agarose from DMSO- or BFA-treated HeLa cells (lysate with NEM), treated with 2% β-mercaptoethanol, deposited on mica, tapping mode in air; volumes by the spherical cap model, Gaussian fit of the …
Conditions: remark: other sources report otherwise

percent of particles in the dimer peak (BFA-treated cells): 10%
percent of particles in the dimer peak (DMSO-treated cells): 27%
stoichiometry N: 2
Substance: giantin-WT-GFP, Q14789 1-3259
